Data published in US6699969 (University of California, dated 2004).

T1: baculovirus-expressed S. purpuratus katanin p80 subunit with N-terminal His(6) tag (Strongylocentrotus purpuratus, UniProt O61585 1-690)
T1 construct: Expressed in Sf9 cells and purified on Ni-NTA; GenBank AF052433; also called p80 katanin; recombinant p80
T1 sequence: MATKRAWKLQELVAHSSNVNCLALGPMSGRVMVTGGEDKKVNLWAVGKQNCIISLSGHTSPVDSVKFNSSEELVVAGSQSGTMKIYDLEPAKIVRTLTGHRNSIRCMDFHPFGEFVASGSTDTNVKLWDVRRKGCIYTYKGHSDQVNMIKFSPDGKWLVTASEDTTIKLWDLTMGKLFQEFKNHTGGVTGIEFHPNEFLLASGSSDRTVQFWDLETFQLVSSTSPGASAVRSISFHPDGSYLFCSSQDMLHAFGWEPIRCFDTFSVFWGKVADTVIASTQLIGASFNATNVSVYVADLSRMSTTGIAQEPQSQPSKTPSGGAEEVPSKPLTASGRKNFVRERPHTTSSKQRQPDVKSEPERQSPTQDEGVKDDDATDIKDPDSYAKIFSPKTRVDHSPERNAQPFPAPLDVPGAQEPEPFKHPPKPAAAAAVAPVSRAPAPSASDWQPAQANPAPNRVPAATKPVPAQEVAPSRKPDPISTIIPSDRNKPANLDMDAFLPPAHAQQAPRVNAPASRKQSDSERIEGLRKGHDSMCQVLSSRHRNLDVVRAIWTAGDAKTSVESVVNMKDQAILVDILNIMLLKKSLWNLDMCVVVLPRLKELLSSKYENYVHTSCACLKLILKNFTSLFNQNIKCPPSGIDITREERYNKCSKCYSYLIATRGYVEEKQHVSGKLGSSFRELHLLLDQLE

T2: p80 delta 560-690, S. purpuratus p80 katanin deletion lacking the C-terminal 130 amino acids, with N-terminal … (Strongylocentrotus purpuratus, UniProt O61585 1-559)
T2 construct: Residues 560-690 deleted by the construct's name; The text says 'C-terminal 130 amino acids', but 560-690 counts 131 residues; also called 560-690 deletion derivative of p80; not shown: 37 amino acid N-terminal S-Tag from pCITE-4a+
T2 sequence: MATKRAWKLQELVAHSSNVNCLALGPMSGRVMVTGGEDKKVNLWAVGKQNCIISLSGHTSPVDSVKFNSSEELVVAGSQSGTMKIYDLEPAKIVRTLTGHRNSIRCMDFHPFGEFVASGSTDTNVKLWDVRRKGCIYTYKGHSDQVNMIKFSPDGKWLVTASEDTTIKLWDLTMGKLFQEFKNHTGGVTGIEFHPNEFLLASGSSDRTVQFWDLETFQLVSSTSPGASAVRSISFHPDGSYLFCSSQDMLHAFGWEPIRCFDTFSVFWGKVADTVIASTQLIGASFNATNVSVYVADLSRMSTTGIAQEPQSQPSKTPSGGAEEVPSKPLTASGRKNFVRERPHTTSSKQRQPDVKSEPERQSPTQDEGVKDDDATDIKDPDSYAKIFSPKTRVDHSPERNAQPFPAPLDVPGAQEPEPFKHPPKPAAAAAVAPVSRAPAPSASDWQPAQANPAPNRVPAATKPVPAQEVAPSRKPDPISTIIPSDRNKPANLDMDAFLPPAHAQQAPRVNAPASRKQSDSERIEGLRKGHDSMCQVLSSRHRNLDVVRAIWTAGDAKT

B1: baculovirus-expressed S. purpuratus katanin p60 subunit with N-terminal His(6) tag (enzyme, not shown: small tags and cut ends)
chain: MSVDEICENTKMGREYALLGNYETSLVYYQGVLQQIQKLLTSVHEPQRKHQWQTIRQELSQEYEHVKNITKTLNGFKSEPAAPEPAPNHGRAAPFSHHQHAAKPAAAEPARDPDVWPPPTPVDHRPSPPYQRAARKDPPRRSEPSKPANRAPGNDRGGRGPSDRRGDARSGGGGRGGARGSDKDKNRGGKSDKDKKAPSGEEGDEKKFDPAGYDKDLVENLERDIVQRNPNVHWADIAGLTEAKRLLEEAVVLPLWMPDYFKGIRRPWKGVLMVGPPGTGKTMLAKAVATECGTTFFNVSSASLTSKYHGESEKLVRLLFEMARFYAPSTIFIDEIDSICSKRGTGSEHEASRRVKSELLIQMDGVSGPSAGEESSKMVMVLAATNFPWDIDEALRRRLEKRIYIPLPEIDGREQLLRINLKEVPLADDIDLKSIAEKMDGYSGADITNVCRDASMMAMRRRIQGLRPEEIRHIPKEELNQPSTPADFLLALQKVSKSVGKEDLVKYMAWMEEFGSV
notes: Expressed in Sf9 cells and purified on Ni-NTA; also called p60 katanin; recombinant p60
B2: in vitro translated S. purpuratus p60 katanin with 37 amino acid N-terminal S-Tag (enzyme)
chain: B1 chain
notes: Made in a rabbit reticulocyte transcription-translation reaction; not shown: 37 amino acid N-terminal S-Tag from pCITE-4a+
B3: p80 delta 303-690, C-terminal truncation of S. purpuratus p80 katanin containing only the WD40 domain, with N-terminal S-Tag (other)
chain: MATKRAWKLQELVAHSSNVNCLALGPMSGRVMVTGGEDKKVNLWAVGKQNCIISLSGHTSPVDSVKFNSSEELVVAGSQSGTMKIYDLEPAKIVRTLTGHRNSIRCMDFHPFGEFVASGSTDTNVKLWDVRRKGCIYTYKGHSDQVNMIKFSPDGKWLVTASEDTTIKLWDLTMGKLFQEFKNHTGGVTGIEFHPNEFLLASGSSDRTVQFWDLETFQLVSSTSPGASAVRSISFHPDGSYLFCSSQDMLHAFGWEPIRCFDTFSVFWGKVADTVIASTQLIGASFNATNVSVYVADLSRMS
notes: not shown: 37 amino acid N-terminal S-Tag from pCITE-4a+

Tests used:
[1] = target: T1, baculovirus-expressed S. purpuratus …; experiment: co-expression in insect cells, metal affinity purification, Coomassie staining
Procedure: 6×His-tagged katanin subunits were purified from lysates of baculovirus-infected insect cells by binding to Ni^2+-NTA Superflow followed by elution with imidazole, as described in the Experimental Procedures. […] Proteins bound to the resin were analyzed by SDS-PAGE followed by staining with Coomassie.
Deciphering the roles of the two katanin subunits is essential for understanding the enzyme's mechanism and biological activities. […] We therefore sought to express the two subunits together and separately and then test their enzymatic activities.

[2] = target: the molecule itself; experiment: rotary-shadowing electron microscopy of recombinant p60
[3] = target: T2, p80 delta 560-690, S. purpuratus p80 …; experiment: in vitro co-translation, immunoprecipitation with anti-p60 antibody, S-protein HRP blot
Procedure: (§1) In vitro synthesis of proteins directly from plasmid DNAs was accomplished using the Single Tube Protein System 2, T7 (Novagen). […] For immunoprecipitations, lysates were incubated on ice with Pansorbin (Calbiochem)-antibody complexes, washed in NET buffer (50 mM Tris-Cl (pH 7.5), 150 mM NaCl, 0.1% Nonidet P-40, 1 mM EDTA (pH 8.0), 0.25% gelatin 0.02% sodium azide), then resuspended in SDS-PAGE sample buffer. In vitro translation products in both the pellets and supernatants from the immunoprecipitations were resolved by SDS-PAGE, transferred to nitrocellulose, probed with S-protein HRP conjugate (Novagen) and detected by chemiluminescence.

[4] = target: B2; experiment: as above
Procedure: as §1

For B1, the “p60:p80 molar ratio in the co-purified protein” value [1] was roughly 0.9 mol p80 per 1.0 mol p60 and the binding result [2] was “binds”.

B2: no binding [3].

B3: no binding [4].
